Test results: patent US12492252 (SHANDONG BOAN BIOTECHNOLOGY, dated 2025)
Where a chain is given by its changes, count along the chain named.

T1: C-terminal fragment of the full length human GPC3 protein (human, UniProt P51654 359-554)
T1 construct: domain: C-terminal subunit (C-terminal fragment); also called C-terminal of GPC3; 30-kDa C-terminal subunit
T1 sequence (looked up): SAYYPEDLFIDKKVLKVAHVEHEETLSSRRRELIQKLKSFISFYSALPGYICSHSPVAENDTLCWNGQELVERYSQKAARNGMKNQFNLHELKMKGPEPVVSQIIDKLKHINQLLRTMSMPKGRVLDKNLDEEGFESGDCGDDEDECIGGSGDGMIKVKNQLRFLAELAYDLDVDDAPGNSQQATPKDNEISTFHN

B1: anti-human GPC3 IgG1 antibody clone 49 (antibody, V domains shown)
VH: CQSVEESGGRLVTPGTPLTLTCTVSGFSLSTYWMTWVRQAPGKGLEWIGIINPSGSAYYASWAKGRFTISKTSSATVDLKMTSLTAADTATYFCAGGGGMDPWGPGTLVTVSS
VL: DPVLTQTPSSVSAAVGGTVSISCQSSQSIVKNYLSWFQQKPGQPPKRLIYKASTLPSGVPSRFKGSGSGTEFTLTISDLECDDAATYYCAASYSDNIYVFGGGTEVVVKR
B2: anti-human GPC3 IgG1 antibody clone 12 (antibody, V domains shown)
VH: B1 VH with Y58F
VL: B1 VL
B3: anti-human GPC3 IgG1 antibody clone 121 (antibody, V domains shown)
VH: B1 VH with S54A, A87V
VL: B1 VL with S20T, S28N, V30I, N32D, A52T, D95G
B4: anti-human GPC3 IgG1 antibody clone 8 (antibody, V domains shown)
VH: B1 VH with P17A, S54G
VL: B1 VL with V30I, Q39H, K51R, K64E
B5: anti-human GPC3 IgG1 antibody clone 22 (antibody, V domains shown)
VH: B1 VH with S54T, S56R
VL: B1 VL with S20T, S22N, I29V, V30Y, K31S, Q39K, P56V, K64V, D95G
B6: anti-human GPC3 IgG1 antibody clone 40 (antibody, V domains shown)
VH: B1 VH with N52S, S54A, A86T
VL: B1 VL
notes: also called parental clone 40; chimeric anti-GPC3 clone 40
B7: anti-human GPC3 IgG1 antibody clone 41 (antibody, V domains shown)
VH: B1 VH with P17A, S54G, T72A
VL: B1 VL with V30I, Q39H, K51R, K64E, S77N
B8: anti-human GPC3 IgG1 antibody clone 17 (antibody, V domains shown)
VH: CQSVEESGGRLVTPGTPLTLTCTVSGFSLSTYDMSWVRQAPGKGLEYIGWINSGGSPYYARWAKGRFTISKTSSTTVDLKMTSPTTEDTATYFCARHRSGYYGDIWGPGTLVTVSL
VL: DPVLTQTPSSVSAAVGDTVSINCQSSQNVYKNRLAWYQQKPGQPPKLLIYGASTLASGVPSRFKGSGSGTQFTLTISDLECDDAATYYCAGGYSTIVDNTFGGGTEVVVKR
B9: anti-human GPC3 IgG1 antibody clone 2 (antibody, V domains shown)
VH: CQSVEESGGRLVTPGTPLTLTCTVSGFSLSTYNMGWIRQAPGEGLEYIGTISSSTGNTYYATWAKGRFTISKTSSTTVDLKITNLTTEDTATYFCVRVNNMGDIWGPGTLVTVSL
VL: AIVMTQTPSSKSVAVGDTVTINCQASESVYKDNRLAWFQQKPGQAPKLLIYLASTLASGVPSRFKGSGSGTEFTLTISDVVCDDAATYYCGGYKDSLFDGFPFGGGTEVVVKR
B10: anti-human GPC3 IgG1 antibody clone 5 (antibody, V domains shown)
VH: B9 VH with I37V
VL: B9 VL with A45P
B11: anti-human GPC3 IgG1 antibody clone 74 (antibody, V domains shown)
VH: QCQSVEESGGRLVTPGTPLTLTYTVSGFSLNNYDMSWVRQAPGKGLQYIGWINSGGTAYYASWAKGRFTISKTSSTTVDLKMTSPTTEDTATYFCARHRYGYYGDIWGPGTLVTVSL
VL: DPVLTQTPSSVSAAVGGTVTINCQSSQNVYNNNRLAWYQQKLGQPPKLLIYFASKLASGVPSRFSGSGSGTQFTLTISGVQCDDAATYYCAGGYNTIVDNGFGGGTEVVVKR
B12: anti-human GPC3 IgG1 antibody clone 122 (antibody)
heavy: not shown
light: DPVLTQTPSSVSAAVGGTVTINCQSSQNVYNNNRLAWYQQKPGQPPKLLIYFASKLASGVPSRFKGNGSGTQFTLTISGVQCDDAATYYCAGGYNSIVDNGFGGGTEVVVERTVAAPSVFIFPPSDEQLKSGTASVVCLLNNFYPREAKVQWKVDNALQSGNSQESVTEQDSKDSTYSLSSTLTLSKADYEKHKVYACEVTHQGLSSPVTKSFNRGECTS
B13: anti-human GPC3 IgG1 antibody clone 182 (antibody)
heavy: not shown
light: B12 light with G104A, E111K

How the values were obtained:
[1] = biological target: T2, full length human GPC3 His (human, UniProt P51654 25-559, limits assumed); assay: SPR (Biacore T200), full length human GPC3 His immobilised, IgG1 in solution
T2 construct: also called full length human GPC3 protein; not shown: His tag

[2] = biological target: T3, human GPC3 on cells (HepG2 cells expressing full length human GPC3; GPC3-transfected HEK293T cells) (human, UniProt P51654 25-554); assay: flow cytometry on HepG2 cells
T3 construct: whole, on cells; also called GPC3-expressing HepG2 tumor cells

[3] = biological target: T4, human GPC3 protein (human, UniProt P51654 25-559); assay: screening of recombinantly expressed rabbit clones (before the change to human constant regions)
T4 construct: also called GPC3 antigen; human GPC3 proteins

[4] = biological target: T1, C-terminal fragment of the full length …; assay: ELISA

| Binder | Kd [1] | RuMax [1] | koff [1] | EC50 [2] | HepG2 Cell binding (Fold ratio) [2] | binding result [3] | binding result [4] |
| --- | --- | --- | --- | --- | --- | --- | --- |
| B1 | 0.9 nM | 1.7 | 0.0017 s⁻¹ | 0.012 nM | 115 fold | – | – |
| B2 | 0.6 nM | 1.4 | 0.0016 s⁻¹ | 0.014 nM | 125 fold | – | – |
| B3 | 0.5 nM | 2 | 0.0015 s⁻¹ | 0.0061 nM | 74.6 fold | – | – |
| B4 | 0.1 nM | 3.7 | 0.00042 s⁻¹ | 0.012 nM | 79.5 fold | – | – |
| B5 | 1.6 nM | 2.9 | 0.00052 s⁻¹ | 0.013 nM | 121 fold | – | – |
| B6 | 0.6 nM | 2.4 | 0.0018 s⁻¹ | 0.013 nM | 104 fold | – | – |
| B7 | 1.3 nM | 1.49 | 0.0032 s⁻¹ | 0.014 nM | 116 fold | – | – |
| B8 | 0.2 nM | 10.7 | 0.0037 s⁻¹ | 0.043 nM | 39.9 fold | – | – |
| B9 | ~0.49 nM | 2 | 0.00039 s⁻¹ | 0.0076 nM | 694 fold | – | – |
| B10 | – | – | – | – | – | binds | binds |
| B11 | 0.02 nM | 24.3 | 0.00034 s⁻¹ | 0.0042 nM | 143 fold | – | – |
| B12 | 0.2 nM | 17.3 | 0.0018 s⁻¹ | 0.0053 nM | 129 fold | – | – |
| B13 | 0.02 nM | 24.3 | 0.0019 s⁻¹ | – | – | – | – |
